Data published in article PMC12288466, “EzrA promotes Z-ring formation through interaction of its QNR motif with FtsA” (Journal of Bacteriology, 2025).

What was measured:
[1] = target: FtsA of B. subtilis, bacterial two-hybrid fusion (UniProt P28264); experiment: bacterial two-hybrid, β-galactosidase activity; conditions: cultured at 30°C for 16 h; parent: est. 270; read off a plot
[2] = target: FtsA of E. faecalis, bacterial two-hybrid fusion (UniProt O07111); experiment: bacterial two-hybrid, β-galactosidase activity; conditions: cultured at 30°C for 16 h; parent: est. 42; read off a plot
[3] = target: FtsA of S. pneumoniae, bacterial two-hybrid fusion (UniProt A0A0H2ZPT5); experiment: bacterial two-hybrid, β-galactosidase activity; conditions: cultured at 30°C for 16 h; parent: est. 110; read off a plot
[4] = target: FtsA of S. suis, bacterial two-hybrid fusion (UniProt A0A0H3MTL7); experiment: bacterial two-hybrid, β-galactosidase activity; conditions: cultured at 30°C for 16 h; parent: est. 300; read off a plot
his-tagged FtsA protein [5] = target: T1, his-tagged FtsA protein (Streptococcus suis, UniProt A0A0H3MTL7 1-459); experiment: SPR; Biacore T200; FtsA covalently immobilised on a CM5 chip (700 RU); EzrA_(cyto) or its variant injected at 200 to 3.125 µM in twofold dilutions, 30 µL/min, 25°C; equilibrium response fitted to a 1:1 binding model; conditions: both partners purified
T1 construct: FtsA of Streptococcus suis, locus SSU05_0480; It was purified 'in the same way but without the SUMO cleavage step'; source: E. coli BL21 (DE3), pET28a, purified (Ni-NTA)
T1 sequence (looked up): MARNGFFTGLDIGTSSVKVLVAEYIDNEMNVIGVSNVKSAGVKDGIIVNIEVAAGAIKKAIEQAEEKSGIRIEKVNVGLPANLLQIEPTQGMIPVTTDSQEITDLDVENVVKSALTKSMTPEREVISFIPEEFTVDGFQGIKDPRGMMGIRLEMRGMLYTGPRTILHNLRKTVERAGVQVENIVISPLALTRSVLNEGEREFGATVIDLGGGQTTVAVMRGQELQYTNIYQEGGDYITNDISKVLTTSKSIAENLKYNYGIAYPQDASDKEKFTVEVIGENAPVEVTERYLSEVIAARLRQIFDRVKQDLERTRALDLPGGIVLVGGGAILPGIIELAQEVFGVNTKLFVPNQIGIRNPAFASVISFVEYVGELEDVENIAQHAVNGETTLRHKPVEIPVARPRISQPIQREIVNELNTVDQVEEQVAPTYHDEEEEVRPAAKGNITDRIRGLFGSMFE

his-tagged FtsA protein [6] = target: T2, his-tagged FtsA protein (Streptococcus suis, UniProt A0A0H3MTL7 1-459); experiment: SPR; kinetic fit
T2 chain: T1 sequence (looked up)

his-tagged FtsA protein [7] = target: T2, his-tagged FtsA protein; experiment: SPR; equilibrium (steady-state) fit

FtsA of S. pneumoniae, bacterial two-hybrid fusion, sequence (A0A0H2ZPT5 whole entry, the tested form may be a part): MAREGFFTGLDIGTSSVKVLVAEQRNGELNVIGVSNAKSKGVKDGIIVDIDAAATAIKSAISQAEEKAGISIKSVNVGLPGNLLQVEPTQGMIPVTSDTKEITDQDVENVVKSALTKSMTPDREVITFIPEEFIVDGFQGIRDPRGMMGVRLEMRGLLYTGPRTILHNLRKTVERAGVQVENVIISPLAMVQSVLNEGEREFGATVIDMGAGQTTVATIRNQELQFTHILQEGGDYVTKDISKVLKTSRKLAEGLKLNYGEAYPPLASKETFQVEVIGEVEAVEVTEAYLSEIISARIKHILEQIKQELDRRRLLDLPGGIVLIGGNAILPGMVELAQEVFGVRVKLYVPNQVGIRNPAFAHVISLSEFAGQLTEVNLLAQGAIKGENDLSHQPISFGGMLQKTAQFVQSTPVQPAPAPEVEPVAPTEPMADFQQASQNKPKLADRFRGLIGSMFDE
FtsA of E. faecalis, bacterial two-hybrid fusion, sequence (O07111 whole entry, the tested form may be a part): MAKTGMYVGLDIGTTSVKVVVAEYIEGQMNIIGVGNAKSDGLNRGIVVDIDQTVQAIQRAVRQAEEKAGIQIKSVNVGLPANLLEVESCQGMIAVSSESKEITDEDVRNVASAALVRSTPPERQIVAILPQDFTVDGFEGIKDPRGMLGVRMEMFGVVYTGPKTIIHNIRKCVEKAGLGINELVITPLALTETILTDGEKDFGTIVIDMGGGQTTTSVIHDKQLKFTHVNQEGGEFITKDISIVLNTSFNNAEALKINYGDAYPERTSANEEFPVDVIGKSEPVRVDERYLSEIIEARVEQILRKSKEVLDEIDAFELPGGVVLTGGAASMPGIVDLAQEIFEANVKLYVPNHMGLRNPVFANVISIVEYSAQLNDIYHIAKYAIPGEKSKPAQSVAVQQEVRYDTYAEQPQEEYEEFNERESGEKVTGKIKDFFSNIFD
FtsA of B. subtilis, bacterial two-hybrid fusion, sequence (P28264 whole entry, the tested form may be a part): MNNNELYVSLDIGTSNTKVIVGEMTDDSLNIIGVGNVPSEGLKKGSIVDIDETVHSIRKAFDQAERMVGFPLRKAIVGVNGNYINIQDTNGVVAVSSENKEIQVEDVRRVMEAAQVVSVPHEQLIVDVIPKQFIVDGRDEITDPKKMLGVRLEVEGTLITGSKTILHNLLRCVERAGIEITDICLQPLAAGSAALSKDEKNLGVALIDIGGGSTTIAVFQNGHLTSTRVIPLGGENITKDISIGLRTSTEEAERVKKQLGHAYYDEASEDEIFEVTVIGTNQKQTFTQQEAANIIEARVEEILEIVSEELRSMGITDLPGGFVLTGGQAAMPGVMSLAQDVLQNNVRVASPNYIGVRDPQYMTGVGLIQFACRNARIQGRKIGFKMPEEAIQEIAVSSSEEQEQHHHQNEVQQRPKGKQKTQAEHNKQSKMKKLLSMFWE

## EzrA of B. subtilis, bacterial two-hybrid fusion (from UniProt O34894) QND
[1]
  response: 38 rel.U

## EzrA of Enterococcus faecalis, bacterial two-hybrid fusion (from UniProt Q838R5) QND
[2]
  response: 25 rel.U

## EzrA of S. pneumoniae, bacterial two-hybrid fusion R515D
[3]
  response: 21 rel.U

## EzrA of S. suis, bacterial two-hybrid fusion R514D
[4]
  response: 50 rel.U

B1: cytoplasmic region of EzrA protein of S. suis (domain or fragment, Streptococcus suis, UniProt A4VWI6 27-574, looked up)
chain: RKRNDNLLVALEERKEELFNLPVNEEVETVKALHLIGQSQVSFREWNQKWVDLSLNSFADIENHIFEAEGYNNAFRFVSAKNAIDSIDSQIDLIEEDIASIRQGLMELKEQEEKNSGRVKHALNLFDSLQEAVRENPDSYGETLSELEKQLKNIEVEFSEFVMLNSSGDPIEASEILDKTEEHMIALNQIMDRIPSLIERVTKDFPEQLEDLESGYRKLVEQNYLFTEANIESQFQNIRVSIRENTALIVSFDLDAAEAENEGIQAKIDHLYKVFNREIEANKEAVKISKNLPKFLEHVVQNTQLLDEESQRLNATYLLADSKLSRINQLKARLESIEIVVTESVEDIENPQVAYSILEERLDHSLASLKEIEEEQLVLADYLKSQELSENTARKKATLYINKLHTLKRYMEKRNLPGIPAEFLTNFFRTSDHVEALIAELDYKRINIEVVNRLLENATYDMNQLEELAYLIVQNATLTEQLLQYSNRYRSFDESVQKAFNRSLSIFEKDFDYQAAFEEISFALETVEPGVTERFVRSYEKTREAIRY
notes: EzrA of Streptococcus suis, locus SSU05_1509, cytoplasmic region; also called EzrA_(cyto); source: E. coli BL21 (DE3), pET28a, purified (Ni-NTA, SUMO protease cleavage); not shown: His-SUMO, C-terminal, cleaved
his-tagged FtsA protein [5]
  fold binding affinity against EzrA^R514D: ≥ 10 fold
his-tagged FtsA protein [6]
  Kd: 1.91 nM
his-tagged FtsA protein [7]
  Kd: 37.2 nM
